Data published in doi:10.1101/416081v1.

What was measured:
Test in all cases: purified protein
O=C1CCc2ccccc2O1 = conditions: pH 7.4; 25.0 °C
CC(=O)Oc1ccccc1 = conditions: pH 8.0; 25.0 °C
[1] = test system: CCCC(=O)Oc1ccc([N+](=O)[O-])cc1; conditions: pH 8.0; 25.0 °C
[2] = test system: CC(=O)Oc1ccc([N+](=O)[O-])cc1; conditions: pH 8.0; 25.0 °C

Which results are given for reTAPON1-LIKE (Trichoderma atroviride)?
Km (O=C1CCc2ccccc2O1): 730 ± 10 µM; Km (CC(=O)Oc1ccccc1): 890 ± 60 µM; Km [1]: 1580 ± 120 µM; Km [2]: 1120 ± 140 µM
